In patent EP4491631A1 (Anaveon AG, dated 2025):
Substitutions are numbered along the chain they refer to.

T1: IL-2R CD122-CD132 on Jurkat-PD1+ CD122+ cells (UniProt P14784 27-551; P31785 23-369)
T1 sequence (looked up) 1: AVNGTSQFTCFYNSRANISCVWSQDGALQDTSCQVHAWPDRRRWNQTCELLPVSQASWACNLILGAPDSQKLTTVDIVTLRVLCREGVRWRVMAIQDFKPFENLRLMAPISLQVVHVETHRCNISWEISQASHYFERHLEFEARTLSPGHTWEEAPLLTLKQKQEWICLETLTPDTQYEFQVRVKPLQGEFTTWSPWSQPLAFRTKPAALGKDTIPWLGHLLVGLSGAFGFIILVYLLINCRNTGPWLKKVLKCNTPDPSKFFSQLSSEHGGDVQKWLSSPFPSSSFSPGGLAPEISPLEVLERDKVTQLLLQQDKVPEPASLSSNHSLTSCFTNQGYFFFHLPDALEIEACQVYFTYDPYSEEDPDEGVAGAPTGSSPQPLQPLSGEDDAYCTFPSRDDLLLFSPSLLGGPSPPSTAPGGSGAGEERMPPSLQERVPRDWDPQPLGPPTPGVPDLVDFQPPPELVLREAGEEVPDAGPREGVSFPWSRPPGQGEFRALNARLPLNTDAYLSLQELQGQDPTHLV
T1 sequence (looked up) 2: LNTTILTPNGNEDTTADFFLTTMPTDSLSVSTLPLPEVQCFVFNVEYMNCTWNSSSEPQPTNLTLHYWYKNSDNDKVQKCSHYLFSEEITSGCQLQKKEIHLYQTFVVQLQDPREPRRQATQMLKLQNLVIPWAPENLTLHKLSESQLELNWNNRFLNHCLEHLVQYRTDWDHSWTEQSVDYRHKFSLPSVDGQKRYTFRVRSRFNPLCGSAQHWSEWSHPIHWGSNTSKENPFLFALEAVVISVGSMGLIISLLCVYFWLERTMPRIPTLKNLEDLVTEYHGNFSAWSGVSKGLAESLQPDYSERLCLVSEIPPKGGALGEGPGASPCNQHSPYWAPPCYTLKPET

B1: JLI141 (bispecific antibody, human IgG1, lambda, L234A L235A)
chain 1: EVQLLESGGGLVQPGGSLRLSCAASGFTFSINAMTWVRQAPGKGLEWVSTISGSGFSTYYADSLKGRFTISRDNSKNTLYLQMNSLRAEDTAVYYCAKEVYGDYWGQGTLVTVSSASTKGPSVFPLAPSSKSTSGGTAALGCLVKDYFPEPVTVSWNSGALTSGVHTFPAVLQSSGLYSLSSVVTVPSSSLGTQTYICNVNHKPSNTKVDKRVEPKSCDKTHTCPPCPAPEAAGGPSVFLFPPKPKDTLMISRTPEVTCVVVDVSHEDPEVKFNWYVDGVEVHNAKTKPREEQYNSTYRVVSVLTVLHQDWLNGKEYKCKVSNKALAAPIEKTISKAKGQPREPQVYTLPPSREEMTKNQVSLTCLVKGFYPSDIAVEWESNGQPENNYKTTPPVLDSDGSFFLTSKLTVDKSRWQQGNVFSCSVMHEALHNHYTQKSLSLSPGK
chain 2: not shown
chain 3: AIRLTQSPSSFSASTGDRVTITCKASQSVDYGGGNFHLRPRDLISNINVIVLELKGSETTFMCEYADETATIVEFLNRWITFSQSIISTLTPTSSSTKKTQLQLEHLLLDLQMILNGINNYKNPKLTRMLTFKFYMPKKATELKHLQCLEEELKPLEEVLNLAQSKGGGGDSYMNWYQQKPGKAPKLLIYAASNLESGVPSRFSGSGSGTDFTLTISSLQSEDFATYYCQQSNEDPYTFGGGTKVEIKGGGGSGGGGSGGGGSEVQLVQSGAEVKKPGESLKISCKGSGYAFTNYLIEWVRQMPGKGLEWMGVINPGSGGTNYNEKFKGQVTISADKSISTAYLQWSSLKASDTAMYYCARWRGEGYYAYFDVWGQGTTVTVSSGGGGSGGGGSEVQLLESGGGLVQPGGSLRLSCAASGFTFSINAMTWVRQAPGKGLEWVSTISGSGFSTYYADSLKGRFTISRDNSKNTLYLQMNSLRAEDTAVYYCAKEVYGDYWGQGTLVTVSSASTKGPSVFPLAPSSKSTSGGTAALGCLVKDYFPEPVTVSWNSGALTSGVHTFPAVLQSSGLYSLSSVVTVPSSSLGTQTYICNVNHKPSNTKVDKRVEPKSCDKTHTCPPCPAPEAAGGPSVFLFPPKPKDTLMISRTPEVTCVVVDVSHEDPEVKFNWYVDGVEVHNAKTKPREEQYNSTYRVVSVLTVLHQDWLNGKEYKCKVSNKALAAPIEKTISKAKGQPREPQVYTLPPSREEMTKNQVSLYCLVKGFYPSDIAVEWESNGQPENNYKTTPPVLDSDGSFFLYSKLTVDKSRWQQGNVFSCSVMHEALHNHYTQKSLSLSPGK
B2: QAB373 (bispecific antibody, human IgG1, kappa, L234A L235A)
chain 1: QVQLVQSGAEVKKPGASVKVSCKASGYTFTNFYIHWVRQAPGQGLEWMGSIYPNYGITAYNQKFKDRVTMTVDTSTSTAYMELRSLRSDDTAVYYCARGYSYAMDYWGQGTTVTVSSASVAAPSVFIFPPSDEQLKSGTASVVCLLNNFYPREAKVQWKVDNALQSGNSQESVTEQDSKDSTYSLSSTLTLSKADYEKHKVYACEVTHQGLSSPVTKSFNRGECDKTHTCPPCPAPEAAGGPSVFLFPPKPKDTLMISRTPEVTCVVVDVSHEDPEVKFNWYVDGVEVHNAKTKPREEQYNSTYRVVSVLTVLHQDWLNGKEYKCKVSNKALAAPIEKTISKAKGQPREPQVYTLPPSREEMTKNQVSLTCLVKGFYPSDIAVEWESNGQPENNYKTTPPVLDSDGSFFLTSKLTVDKSRWQQGNVFSCSVMHEALHNHYTQKSLSLSPGK
chain 2: DIQMTQSPSSVSASVGDRVTITCSASQGISGDLNWYQQKPGKAPKLLIYHTSQLHSDVPSRFSGSGSGTDFTLTISSLQPEDFATYYCQGYSKDLLTFGGGTKLEIKSSASTKGPSVFPLAPSSKSTSGGTAALGCLVKDYFPEPVTVSWNSGALTSGVHTFPAVLQSSGLYSLSSVVTVPSSSLGTQTYICNVNHKPSNTKVDKRVEPKSC
chain 3: EVQLVQSGAEVKKPGESLKISCKGSGYAFTNYLIEWVRQMPGKGLEWMGVINPGSGGTNYNEKFKGQVTISADKSISTAYLQWSSLKASDTAMYYCARWRGEGYYAYFDVWGQGTTVTVSSASTKGPSVFPLAPSSKSTSGGTAALGCLVKDYFPEPVTVSWNSGALTSGVHTFPAVLQSSGLYSLSSVVTVPSSSLGTQTYICNVNHKPSNTKVDKRVEPKSCDKTHTCPPCPAPEAAGGPSVFLFPPKPKDTLMISRTPEVTCVVVDVSHEDPEVKFNWYVDGVEVHNAKTKPREEQYNSTYRVVSVLTVLHQDWLNGKEYKCKVSNKALAAPIEKTISKAKGQPREPQVYTLPPSREEMTKNQVSLYCLVKGFYPSDIAVEWESNGQPENNYKTTPPVLDSDGSFFLYSKLTVDKSRWQQGNVFSCSVMHEALHNHYTQKSLSLSPGK
chain 4: not shown
B3: GQM289 (bispecific antibody, human IgG1, kappa, lambda, L234A L235A)
chain 1: B1 chain 1
chain 2: not shown
chain 3: B2 chain 3
chain 4: not shown
B4: RIB426 (bispecific antibody, human IgG1, kappa, L234A L235A)
chain 1: B2 chain 1 with S50R
chain 2: B2 chain 2 with L54R
chain 3: B2 chain 3
chain 4: not shown
B5: MDS446 (bispecific antibody, human IgG1, kappa, L234A L235A)
chain 1: QVQLVQSGAEVKKPGASVKVSCKASGYTFTNFYIHWVRQAPGQGLEWMGSIYPNYGITAYNQKFKDRVTMTVDTSTSTAYMELRSLRSDDTAVYYCARGYSYAMDYWGQGTTVTVSSASTKGPSVFPLAPSSKSTSGGTAALGCLVKDYFPEPVTVSWNSGALTSGVHTFPAVLQSSGLYSLSSVVTVPSSSLGTQTYICNVNHKPSNTKVDKRVEPKSCDKTHTCPPCPAPEAAGGPSVFLFPPKPKDTLMISRTPEVTCVVVDVSHEDPEVKFNWYVDGVEVHNAKTKPREEQYNSTYRVVSVLTVLHQDWLNGKEYKCKVSNKALAAPIEKTISKAKGQPREPQVYTLPPSREEMTKNQVSLTCLVKGFYPSDIAVEWESNGQPENNYKTTPPVLDSDGSFFLTSKLTVDKSRWQQGNVFSCSVMHEALHNHYTQKSLSLSPGK
chain 2: DIQMTQSPSSVSASVGDRVTITCSASQGISGDLNWYQQKPGKAPKLLIYHTSQLHSDVPSRFSGSGSGTDFTLTISSLQPEDFATYYCQGYSKDLLTFGGGTKLEIKRTVAAPSVFIFPPSDEQLKSGTASVVCLLNNFYPREAKVQWKVDNALQSGNSQESVTEQDSKDSTYSLSSTLTLSKADYEKHKVYACEVTHQGLSSPVTKSFNRGEC
chain 3: AIRLTQSPSSFSASTGDRVTITCKASQSVDYGGGNFHLRPRDLISNINVIVLELKGSETTFMCEYADETATIVEFLNRWITFSQSIISTLTPTSSSTKKTQLQLEHLLLDLQMILNGINNYKNPKLTRMLTFKFYMPKKATELKHLQCLEEELKPLEEVLNLAQSKGGGGDSYMNWYQQKPGKAPKLLIYAASNLESGVPSRFSGSGSGTDFTLTISSLQSEDFATYYCQQSNEDPYTFGGGTKVEIKGGGGSGGGGSGGGGSEVQLVQSGAEVKKPGESLKISCKGSGYAFTNYLIEWVRQMPGKGLEWMGVINPGSGGTNYNEKFKGQVTISADKSISTAYLQWSSLKASDTAMYYCARWRGEGYYAYFDVWGQGTTVTVSSGGGGSGGGGSQVQLVQSGAEVKKPGASVKVSCKASGYTFTNFYIHWVRQAPGQGLEWMGSIYPNYGITAYNQKFKDRVTMTVDTSTSTAYMELRSLRSDDTAVYYCARGYSYAMDYWGQGTTVTVSSASTKGPSVFPLAPSSKSTSGGTAALGCLVKDYFPEPVTVSWNSGALTSGVHTFPAVLQSSGLYSLSSVVTVPSSSLGTQTYICNVNHKPSNTKVDKRVEPKSCDKTHTCPPCPAPEAAGGPSVFLFPPKPKDTLMISRTPEVTCVVVDVSHEDPEVKFNWYVDGVEVHNAKTKPREEQYNSTYRVVSVLTVLHQDWLNGKEYKCKVSNKALAAPIEKTISKAKGQPREPQVYTLPPSREEMTKNQVSLYCLVKGFYPSDIAVEWESNGQPENNYKTTPPVLDSDGSFFLYSKLTVDKSRWQQGNVFSCSVMHEALHNHYTQKSLSLSPGK
B6: TMU471 (bispecific antibody, human IgG1, kappa, L234A L235A)
chain 1: B5 chain 1 with S50R
chain 2: B5 chain 2 with L54R
chain 3: B5 chain 3 with S444R

Each binder was assayed against T1, IL-2R CD122-CD132 on Jurkat-PD1+ CD122+ … (assay: cell-based or functional assay).
With B1 the “EC50 value for pSTAT5 induction” value was 0.2 nM. With B2 the “EC50 value for pSTAT5 induction” value was 70 pM. With B3 the “EC50 value for pSTAT5 induction” value was 0.22 nM. In the case of B4, the “EC50 value for pSTAT5 induction” value is reported as 0.12 nM. For B5, the “EC50 value for pSTAT5 induction” value was 60 pM. In the case of B6, the “EC50 value for pSTAT5 induction” value is reported as 60 pM.
